In the supplement of paper PMC5998384:

What was measured:
HeLa Kyoto [1] = assay: solubility change mitosis vs G1/S (difference of NP-40 vs SDS log2 ratios) (log2 ratio difference); higher = more soluble in mitosis
HeLa Kyoto [2] = assay: thermal stability score vs G1/S (z-score of summed log2 fold changes over temperatures); higher = more thermally stable than in G1/S
HeLa Kyoto [3] = assay: melting temperature (median over replicates), in situ; higher = more thermally stable
HeLa Kyoto [4] = assay: solubility in G1/S (NP-40 vs SDS abundance) (log2 ratio); higher = more soluble; settings: cell cycle stage: G1/S
[5] = cell cycle stage: early G1 (4.5 h after nocodazole release)
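Throughout, for melting temperature (median over replicates), in situ: HeLa Kyoto cells synchronized by double thymidine or nocodazole block, proteins quantified by TMT10plex mass spectrometry, three independent biological replicates.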
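Throughout, for solubility change mitosis vs G1/S (difference of NP-40 vs SDS log2 ratios): synchronized HeLa Kyoto cells (double thymidine block for G1/S, nocodazole release for mitosis), protein amounts in NP-40 versus SDS lysates quantified by mass spectrometry, three biological replicates.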
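Throughout, for solubility in G1/S (NP-40 vs SDS abundance): HeLa Kyoto cells arrested at G1/S by double thymidine block, proteins quantified by TMT10plex mass spectrometry in mild NP-40 versus SDS extracts, three biological replicates.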
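Throughout, for thermal stability score vs G1/S (z-score of summed log2 fold changes over temperatures): synchronized HeLa Kyoto cells, proteins quantified by TMT10plex mass spectrometry, three biological replicates, mitosis taken 0.5 h after nocodazole release, G1/S directly after double thymidine block.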

Sequence of DENND4C (chain, as listed by the source): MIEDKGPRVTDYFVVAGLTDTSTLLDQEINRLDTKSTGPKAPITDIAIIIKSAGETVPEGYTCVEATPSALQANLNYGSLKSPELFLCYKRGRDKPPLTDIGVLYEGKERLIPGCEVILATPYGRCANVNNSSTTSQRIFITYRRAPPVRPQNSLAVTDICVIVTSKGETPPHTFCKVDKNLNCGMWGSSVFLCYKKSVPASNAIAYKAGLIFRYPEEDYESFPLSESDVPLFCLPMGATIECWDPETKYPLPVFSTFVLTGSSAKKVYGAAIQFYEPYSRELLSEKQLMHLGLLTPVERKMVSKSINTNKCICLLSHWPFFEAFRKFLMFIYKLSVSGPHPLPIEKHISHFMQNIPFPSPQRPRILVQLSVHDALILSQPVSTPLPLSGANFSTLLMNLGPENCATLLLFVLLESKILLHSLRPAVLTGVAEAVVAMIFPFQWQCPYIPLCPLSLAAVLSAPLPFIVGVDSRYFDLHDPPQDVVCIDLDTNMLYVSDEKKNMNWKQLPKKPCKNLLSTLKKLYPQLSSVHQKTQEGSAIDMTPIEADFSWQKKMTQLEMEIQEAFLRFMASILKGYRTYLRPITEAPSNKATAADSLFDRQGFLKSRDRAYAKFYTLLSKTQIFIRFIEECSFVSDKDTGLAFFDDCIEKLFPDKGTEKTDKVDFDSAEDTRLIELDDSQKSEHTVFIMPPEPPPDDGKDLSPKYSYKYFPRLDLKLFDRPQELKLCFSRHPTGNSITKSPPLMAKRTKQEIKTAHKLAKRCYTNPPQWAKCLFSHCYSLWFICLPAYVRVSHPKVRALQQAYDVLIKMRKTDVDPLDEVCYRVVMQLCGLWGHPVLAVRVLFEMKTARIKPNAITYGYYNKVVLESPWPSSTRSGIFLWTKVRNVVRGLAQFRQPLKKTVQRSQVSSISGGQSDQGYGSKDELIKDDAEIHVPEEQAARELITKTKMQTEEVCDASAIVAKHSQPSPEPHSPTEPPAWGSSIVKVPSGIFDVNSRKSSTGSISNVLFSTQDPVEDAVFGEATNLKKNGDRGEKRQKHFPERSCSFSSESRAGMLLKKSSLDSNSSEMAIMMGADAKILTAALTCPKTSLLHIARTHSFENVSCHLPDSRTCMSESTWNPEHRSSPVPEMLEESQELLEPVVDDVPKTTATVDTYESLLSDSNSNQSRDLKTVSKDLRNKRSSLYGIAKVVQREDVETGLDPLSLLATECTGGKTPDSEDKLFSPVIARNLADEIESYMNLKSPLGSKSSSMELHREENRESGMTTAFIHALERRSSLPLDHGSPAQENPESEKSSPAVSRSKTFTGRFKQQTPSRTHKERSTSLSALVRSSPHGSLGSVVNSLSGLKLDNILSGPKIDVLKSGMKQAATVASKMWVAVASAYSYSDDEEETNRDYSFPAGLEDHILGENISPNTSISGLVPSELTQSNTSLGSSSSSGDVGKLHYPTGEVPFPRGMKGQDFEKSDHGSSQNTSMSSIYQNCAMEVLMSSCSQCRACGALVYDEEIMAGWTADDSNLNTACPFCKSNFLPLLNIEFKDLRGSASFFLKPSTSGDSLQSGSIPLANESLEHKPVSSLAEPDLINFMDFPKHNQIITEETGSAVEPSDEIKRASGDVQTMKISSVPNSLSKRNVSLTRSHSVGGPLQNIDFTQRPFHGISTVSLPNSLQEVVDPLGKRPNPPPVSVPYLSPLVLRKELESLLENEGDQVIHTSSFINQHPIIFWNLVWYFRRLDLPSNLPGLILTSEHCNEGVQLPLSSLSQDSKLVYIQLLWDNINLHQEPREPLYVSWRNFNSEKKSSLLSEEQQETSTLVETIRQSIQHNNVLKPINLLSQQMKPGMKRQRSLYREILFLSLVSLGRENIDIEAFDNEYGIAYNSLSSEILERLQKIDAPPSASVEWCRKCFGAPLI

| Substance | solubility change mitosis (log2) (HeLa Kyoto [1]) | thermal stability score (HeLa Kyoto [2]; [5]) | thermal stability score (HeLa Kyoto [2]; cell cycle stage: mitosis) | melting temperature (HeLa Kyoto [3]; cell cycle stage: G1/S) | melting temperature (HeLa Kyoto [3]; cell cycle stage: mitosis) | solubility in G1/S (log2) (HeLa Kyoto [4]) |
| --- | --- | --- | --- | --- | --- | --- |
| MNLFNLDRFRFEKRNKIEEAPEATPQPSQPGPSSPISLSAEEENAEGEVSRANTPDSDITEKTEDSSVPETPDNERKASISYFKNQRGIQYIDLSSDSEDVVSPNCSNTVQEKTFNKDTVIIVSEPSEDEESQGLPTMARRNDDISELEDLSELEDLKDAKLQTLKELFPQRSDNDLLKLIESTSTMDGAIAAALLMFGDAGGGPRKRKLSSSSEPYEEDEFNDDQSIKKTRLDHGEESNESAESSSNWEKQESIVLKLQKEFPNFDKQELREVLKEHEWMYTEALESLKVFAEDQDMQYVSQSEVPNGKEVSSRSQNYPKNATKTKLKQKFSMKAQNGFNKKRKKNVFNPKRVVEDSEYDSGSDVGSSLDEDYSSGEEVMEDGYKGKILHFLQDASIGELTLIPQCSQKKAQKITELRPFNSWEALFTKMSKTNGLSEDLIWHCKTLIQERDVVIRLMNKCEDISNKLTKQVTMLTGNGGGWNIEQPSILNQSLSLKPYQKVGLNWLALVHKHGLNGILADEMGLGKTIQAIAFLAYLYQEGNNGPHLIVVPASTIDNWLREVNLWCPTLKVLCYYGSQEERKQIRFNIHSRYEDYNVIVTTYNCAISSSDDRSLFRRLKLNYAIFDEGHMLKNMGSIRYQHLMTINANNRLLLTGTPVQNNLLELMSLLNFVMPHMFSSSTSEIRRMFSSKTKSADEQSIYEKERIAHAKQIIKPFILRRVKEEVLKQLPPKKDRIELCAMSEKQEQLYLGLFNRLKKSINNLEKNTEMCNVMMQLRKMANHPLLHRQYYTAEKLKEMSQLMLKEPTHCEANPDLIFEDMEVMTDFELHVLCKQYRHINNFQLDMDLILDSGKFRVLGCILSELKQKGDRVVLFSQFTMMLDILEVLLKHHQHRYLRLDGKTQISERIHLIDEFNTDMDIFVFLLSTKAGGLGINLTSANVVILHDIDCNPYNDKQAEDRCHRVGQTKEVLVIKLISQGTIEESMLKINQQKLKLEQDMTTVDEGDEGSMPADIATLLKTSMGL [SMARCAD1] | -0.124 | 2.18 | 3.89 | 48.4 °C | 49.7 °C | -0.1 |
| TOR1AIP1 | 0.144 | 1.27 | 1.41 | 54.4 °C | 54.9 °C | -0.0913 |
| MEQPPAPKSKLKKLSEDSLTKQPEEVFDVLEKLGEGSYGSVFKAIHKESGQVVAIKQVPVESDLQEIIKEISIMQQCDSPYVVKYYGSYFKNTDLWIVMEYCGAGSVSDIIRLRNKTLIEDEIATILKSTLKGLEYLHFMRKIHRDIKAGNILLNTEGHAKLADFGVAGQLTDTMAKRNTVIGTPFWMAPEVIQEIGYNCVADIWSLGITSIEMAEGKPPYADIHPMRAIFMIPTNPPPTFRKPELWSDDFTDFVKKCLVKNPEQRATATQLLQHPFIKNAKPVSILRDLITEAMEIKAKRHEEQQRELEEEEENSDEDELDSHTMVKTSVESVGTMRATSTMSEGAQTMIEHNSTMLESDLGTMVINSEDEEEEDGTMKRNATSPQVQRPSFMDYFDKQDFKNKSHENCNQNMHEPFPMSKNVFPDNWKVPQDGDFDFLKNLSLEELQMRLKALDPMMEREIEELRQRYTAKRQPILDAMDAKKRRQQNF [STK3] | -0.13 | 1.31 | 1.36 | 53 °C | 53.3 °C | 0.0428 |
| UGGT2 | -0.15 | 2.37 | 4.53 | 54 °C | 54.1 °C | -0.222 |
| ZC3H13 | 0.414 | 0.124 | 2.39 | 49.5 °C | 50.7 °C | -0.595 |
| MDESALLDLLECPVCLERLDASAKVLPCQHTFCKRCLLGIVGSRNELRCPECRTLVGSGVEELPSNILLVRLLDGIKQRPWKPGPGGGSGTNCTNALRSQSSTVANCSSKDLQSSQGGQQPRVQSWSPPVRGIPQLPCAKALYNYEGKEPGDLKFSKGDIIILRRQVDENWYHGEVNGIHGFFPTNFVQIIKPLPQPPPQCKALYDFEVKDKEADKDCLPFAKDDVLTVIRRVDENWAEGMLADKIGIFPISYVEFNSAAKQLIEWDKPPVPGVDAGECSSAAAQSSTAPKHSDTKKNTKKRHSFTSLTMANKSSQASQNRHSMEISPPVLISSSNPTAAARISELSGLSCSAPSQVHISTTGLIVTPPPSSPVTTGPSFTFPSDVPYQAALGTLNPPLPPPPLLAATVLASTPPGATAAAAAAGMGPRPMAGSTDQIAHLRPQTRPSVYVAIYPYTPRKEDELELRKGEMFLVFERCQDGWFKGTSMHTSKIGVFPGNYVAPVTRAVTNASQAKVPMSTAGQTSRGVTMVSPSTAGGPAQKLQGNGVAGSPSVVPAAVVSAAHIQTSPQAKVLLHMTGQMTVNQARNAVRTVAAHNQERPTAAVTPIQVQNAAGLSPASVGLSHHSLASPQPAPLMPGSATHTAAISISRASAPLACAAAAPLTSPSITSASLEAEPSGRIVTVLPGLPTSPDSASSACGNSSATKPDKDSKKEKKGLLKLLSGASTKRKPRVSPPASPTLEVELGSAELPLQGAVGPELPPGGGHGRAGSCPVDGDGPVTTAVAGAALAQDAFHRKASSLDSAVPIAPPPRQACSSLGPVLNESRPVVCERHRVVVSYPPQSEAELELKEGDIVFVHKKREDGWFKGTLQRNGKTGLFPGSFVENI [SH3RF1] | -0.13 | 0.34 | 1.14 | 49.3 °C | 51 °C | 0.517 |
| MAAESALQVVEKLQARLAANPDPKKLLKYLKKLSTLPITVDILAETGVGKTVNSLRKHEHVGSFARDLVAQWKKLVPVERNAEPDEQDFEKSNSRKRPRDALQKEEEMEGDYQETWKATGSRSYSPDHRQKKHRKLSELERPHKVSHGHERRDERKRCHRMSPTYSSDPESSDYGHVQSPPSCTSPHQMYVDHYRSLEEDQEPIVSHQKPGKGHSNAFQDRLGASQERHLGEPHGKGVVSQNKEHKSSHKDKRPVDAKSDEKASVVSREKSHKALSKEENRRPPSGDNAREKPPSSGVKKEKDREGSSLKKKCLPPSEAASDNHLKKPKHRDPEKAKLDKSKQGLDSFDTGKGAGDLLPKVKEKGSNNLKTPEGKVKTNLDRKSLGSLPKVEETDMEDEFEQPTMSFESYLSYDQPRKKKKKIVKTSATALGDKGLKKNDSKSTGKNLDSVQKLPKVNKTKSEKPAGADLAKLRKVPDVLPVLPDLPLPAIQANYRPLPSLELISSFQPKRKAFSSPQEEEEAGFTGRRMNSKMQVYSGSKCAYLPKMMTLHQQCIRVLKNNIDSIFEVGGVPYSVLEPVLERCTPDQLYRIEEYNHVLIEETDQLWKVHCHRDFKEERPEEYESWREMYLRLQDAREQRLRVLTKNIQFAHANKPKGRQAKMAFVNSVAKPPRDVRRRQEKFGTGGAAVPEKIKIKPAPYPMGSSHASASSISFNPSPEEPAYDGPSTSSAHLAPVVSSTVSYDPRKPTVKKIAPMMAKTIKAFKNRFSRR [TCEB3] | 0.454 | 0.335 | 1.24 | 47.8 °C | 49.2 °C | -0.429 |
| MAAAVAAAPGALGSLHAGGARLVAACSAWLCPGLRLPGSLAGRRAGPAIWAQGWVPAAGGPAPKRGYSSEMKTEDELRVRHLEEENRGIVVLGINRAYGKNSLSKNLIKMLSKAVDALKSDKKVRTIIIRSEVPGIFCAGADLKERAKMSSSEVGPFVSKIRAVINDIANLPVPTIAAIDGLALGGGLELALACDIRVAASSAKMGLVETKLAIIPGGGGTQRLPRAIGMSLAKELIFSARVLDGKEAKAVGLISHVLEQNQEGDAAYRKALDLAREFLPQGPVAMRVAKLAINQGMEVDLVTGLAIEEACYAQTIPTKDRLEGLLAFKEKRPPRYKGE [AUH] | -0.0164 | 0.266 | 1.09 | 51.6 °C | 51.6 °C | 0.261 |
| DENND4C | -0.154 | 0.187 | 0.554 | 50.6 °C | 50.8 °C | 0.0629 |
| MPGFLVRILPLLLVLLLLGPTRGLRNATQRMFEIDYSRDSFLKDGQPFRYISGSIHYSRVPRFYWKDRLLKMKMAGLNAIQTYVPWNFHEPWPGQYQFSEDHDVEYFLRLAHELGLLVILRPGPYICAEWEMGGLPAWLLEKESILLRSSDPDYLAAVDKWLGVLLPKMKPLLYQNGGPVITVQVENEYGSYFACDFDYLRFLQKRFRHHLGDDVVLFTTDGAHKTFLKCGALQGLYTTVDFGTGSNITDAFLSQRKCEPKGPLINSEFYTGWLDHWGQPHSTIKTEAVASSLYDILARGASVNLYMFIGGTNFAYWNGANSPYAAQPTSYDYDAPLSEAGDLTEKYFALRNIIQKFEKVPEGPIPPSTPKFAYGKVTLEKLKTVGAALDILCPSGPIKSLYPLTFIQVKQHYGFVLYRTTLPQDCSNPAPLSSPLNGVHDRAYVAVDGIPQGVLERNNVITLNITGKAGATLDLLVENMGRVNYGAYINDFKGLVSNLTLSSNILTDWTIFPLDTEDAVRSHLGGWGHRDSGHHDEAWAHNSSNYTLPAFYMGNFSIPSGIPDLPQDTFIQFPGWTKGQVWINGFNLGRYWPARGPQLTLFVPQHILMTSAPNTITVLELEWAPCSSDDPELCAVTFVDRPVIGSSVTYDHPSKPVEKRLMPPPPQKNKDSWLDHV [GLB1] | -0.293 | 0.0217 | 0.602 | 55.6 °C | 57.6 °C | 0.0247 |
